# Laboratory results reported in IntAct's records for PubMed 29039417.
# B1: Protein PTHB1 (Homo sapiens), Q3SYG4 (parent)
# chain: MSLFKARDWWSTILGDKEEFDQGCLCLANVDNSGNGQDKIIVGSFMGYLRIFSPHPAKTGDGAQAEDLLLEVDLRDPVLQVEVGKFVSGTEMLHLAVLHSRKLCVYSVSGTLGNVEHGNQCQMKLMYEHNLQRTACNMTYGSFGGVKGRDLICIQSMDGMLMVFEQESYAFGRFLPGFLLPGPLAYSSRTDSFLTVSSCQQVESYKYQVLAFATDADKRQETEQQKLGSGKRLVVDWTLNIGEQALDICIVSFNQSASSVFVLGERNFFCLKDNGQIRFMKKLDWSPSCFLPYCSVSEGTINTLIGNHNNMLHIYQDVTLKWATQLPHIPVAVRVGCLHDLKGVIVTLSDDGHLQCSYLGTDPSLFQAPNVQSRELNYDELDVEMKELQKIIKDVNKSQGVWPMTEREDDLNVSVVVSPNFDSVSQATDVEVGTDLVPSVTVKVTLQNRVILQKAKLSVYVQPPLELTCDQFTFEFMTPDLTRTVSFSVYLKRSYTPSELEGNAVVSYSRPTDRNPDGIPRVIQCKFRLPLKLICLPGQPSKTASHKITIDTNKSPVSLLSLFPGFASQSDDDQVNVMGFHFLGGARITVLASKTSQRYRIQSEQFEDLWLITNELILRLQEYFEKQGVKDFACSFSGSIPLQEYFELIDHHFELRINGEKLEELLSERAVQFRAIQRRLLARFKDKTPAPLQHLDTLLDGTYKQVIALADAVEENQGNLFQSFTRLKSATHLVILLIALWQKLSADQVAILEAAFLPLQEDTQELGWEETVDAAISHLLKTCLSKSSKEQALNLNSQLNIPKDTSQLKKHITLLCDRLSKGGRLCLSTDAAAPQTMVMPGGCTTIPESDLEERSVEQDSTELFTNHRHLTAETPRPEVSPLQGVSE
# partner: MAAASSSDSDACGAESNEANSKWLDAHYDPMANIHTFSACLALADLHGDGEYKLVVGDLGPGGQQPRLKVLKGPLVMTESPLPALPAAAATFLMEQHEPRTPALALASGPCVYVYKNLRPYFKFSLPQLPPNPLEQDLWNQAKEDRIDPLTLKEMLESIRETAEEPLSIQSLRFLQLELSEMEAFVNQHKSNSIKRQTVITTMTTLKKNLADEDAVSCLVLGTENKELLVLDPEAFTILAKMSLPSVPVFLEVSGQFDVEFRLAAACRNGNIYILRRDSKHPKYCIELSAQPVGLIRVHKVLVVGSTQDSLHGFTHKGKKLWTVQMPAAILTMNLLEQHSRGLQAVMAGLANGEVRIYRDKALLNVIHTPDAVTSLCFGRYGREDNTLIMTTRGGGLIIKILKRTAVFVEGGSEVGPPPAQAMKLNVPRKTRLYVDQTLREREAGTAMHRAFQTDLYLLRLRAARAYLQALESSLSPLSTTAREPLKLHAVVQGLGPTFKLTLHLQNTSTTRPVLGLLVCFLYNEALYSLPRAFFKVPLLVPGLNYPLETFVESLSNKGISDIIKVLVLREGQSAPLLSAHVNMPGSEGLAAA
# B2: Isoform 2 of Bardet-Biedl syndrome 7 protein (Homo sapiens), Q8IWZ6-2 (parent)
# chain: MDLILNRMDYLQVGVTSQKTMKLIPASRHRATQKVVIGDHDGVVMCFGMKKGEAAAVFKTLPGPKIARLELGGVINTPQEKIFIAAASEIRGFTKRGKQFLSFETNLTESIKAMHISGSDLFLSASYIYNHYCDCKDQHYYLSGDKINDVICLPVERLSRITPVLACQDRVLRVLQGSDVMYAVEVPGPPTVLALHNGNGGDSGEDLLFGTSDGKLALIQITTSKPVRKWEIQNEKKRGGILCIDSFDIVGDGVKDLLVGRDDGMVEVYSFDNANEPVLRFDQMLSESVTSIQGGCVGKDSYDEIVVSTYSGWVTGLTTEPIHKESGPGEELKINQEMQNKISSLRNELEHLQYKVLQERENYQQSSQSSKAKSAVPSFGINDKFTLNKDDASYSLILEVQTAIDNVLIQSDVPIDLLDVDKNSAVVSFSSCDSESNDNFLLATYRCQADTTRLELKIRSIEGQYGTLQAYVTPRIQPKTCQVRQYHIKPLSLHQRTHFIDHDRPMNTLTLTGQFSFAEVHSWVVFCLPEVPEKPPAGECVTFYFQNTFLDTQLESTYRKGEGVFKSDNISTISILKDVLSKEATKRKINLNISYEINEVSVKHTLKLIHPKLEYQLLLAKKVQLIDALKELQIHEGNTNFLIPEYHCILEEADHLQEEYKKQPAHLERLYG
# partner: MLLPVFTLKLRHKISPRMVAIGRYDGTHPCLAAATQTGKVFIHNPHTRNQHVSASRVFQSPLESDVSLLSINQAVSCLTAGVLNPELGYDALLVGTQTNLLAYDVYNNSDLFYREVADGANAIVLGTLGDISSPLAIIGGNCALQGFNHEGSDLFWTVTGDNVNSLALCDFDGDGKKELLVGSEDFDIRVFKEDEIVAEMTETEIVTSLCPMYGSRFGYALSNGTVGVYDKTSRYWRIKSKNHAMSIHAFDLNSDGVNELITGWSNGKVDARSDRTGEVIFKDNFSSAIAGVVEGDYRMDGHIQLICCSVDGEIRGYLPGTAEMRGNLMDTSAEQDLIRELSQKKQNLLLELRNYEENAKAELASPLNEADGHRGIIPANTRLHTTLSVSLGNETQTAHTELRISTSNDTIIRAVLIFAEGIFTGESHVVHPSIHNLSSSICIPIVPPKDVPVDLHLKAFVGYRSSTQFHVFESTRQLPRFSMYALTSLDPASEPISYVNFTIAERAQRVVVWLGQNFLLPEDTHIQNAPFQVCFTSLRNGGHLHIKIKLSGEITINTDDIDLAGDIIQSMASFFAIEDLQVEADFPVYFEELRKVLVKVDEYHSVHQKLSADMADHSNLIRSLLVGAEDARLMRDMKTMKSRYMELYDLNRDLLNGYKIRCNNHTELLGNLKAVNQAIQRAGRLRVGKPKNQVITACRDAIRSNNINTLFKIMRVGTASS
# Variants of: B1
# Settings: with bbs1_human BBS1, Q8NFJ9
row,Variant,effect of a mutation on the interaction
1,T552K,with no effect
2,V557E,with no effect
3,V575A,with no effect
4,S494A,with no effect
5,Q539K,with no effect
6,L583A,with no effect
7,N515A,with no effect
8,N515K,with no effect
9,N515E,with no effect
10,F624K,with no effect
11,R868K,with no effect
12,T595K,with no effect
13,V522K,with no effect
14,V522E,with no effect
15,L457A,with no effect
16,L736K,with no effect
17,D422A,with no effect
18,K661A,with no effect
19,K661E,with no effect
20,L446A,with no effect
21,K704A,with no effect
22,E857A,with no effect
23,P419E,with no effect

row,Variant,effect of a mutation on the interaction
1,F684E,with no effect
2,M837A,with no effect
3,L825A,with no effect
4,Q524A,with no effect
5,L481A,with no effect
6,D551E,with no effect
7,D711K,with no effect
8,G518E,with no effect
9,A833E,with no effect
10,V879E,with no effect
11,V879A,with no effect
12,S777E,with no effect
13,S777K,with no effect
14,N800A,with no effect
15,R493E,with no effect
16,A755E,with no effect
17,D573E,with no effect
18,C469Y,disrupting interaction strength
19,V734E,with no effect
20,L467A,with no effect
21,E715K,with no effect
22,P464E,with no effect
23,E668K,with no effect

row,Variant,effect of a mutation on the interaction
1,S745K,with no effect
2,A592E,with no effect
3,D608A,with no effect
4,V415A,with no effect
5,N576K,with no effect
6,D762E,with no effect
7,E466A,with no effect
8,L814A,with no effect
9,L815A,with no effect
10,Q574A,with no effect
11,L500E,with no effect
12,Y645A,with no effect
13,S425A,with no effect
14,S596E,with no effect
15,Q835A,with no effect
16,G502A,with no effect
17,F580A,disrupting interaction strength
18,L733K,with no effect
19,Q602K,with no effect
20,V489A,with no effect
21,S860A,with no effect
22,P881E,with no effect
23,E615A,with no effect

row,Variant,effect of a mutation on the interaction
1,P564A,with no effect
2,K526A,with no effect
3,D696V,disrupting interaction strength
4,I657E,with no effect
5,T434E,with no effect
6,P840K,disrupting interaction strength
7,S886E,with no effect
8,V417K,with no effect
9,K789A,with no effect
10,D480K,with no effect
11,R600G,disrupting interaction strength
12,T702K,with no effect
13,S488A,with no effect
14,V413E,with no effect
15,N794A,with no effect
16,G822A,with no effect
17,P802A,with no effect
18,N796A,with no effect
19,N796K,with no effect
20,T484K,with no effect
21,L620A,with no effect
22,S855K,with no effect
23,E660K,with no effect

row,Variant,effect of a mutation on the interaction
1,R678E,with no effect
2,P540A,with no effect
3,G842E,with no effect
4,P438K,with no effect
5,D435K,with no effect
6,Q791L,disrupting interaction strength
7,P641A,with no effect
8,P689A,with no effect
9,H811A,with no effect
10,S828K,with no effect
11,T543E,with no effect
12,H867A,with no effect
13,F653A,with no effect
14,F653E,with no effect
15,T688A,with no effect
16,I707E,with no effect
17,A670K,with no effect
18,A567K,with no effect
19,E654G,disrupting interaction strength
20,G767A,with no effect

# The next lines start with the values.
row,effect of a mutation on the interaction,Variant
1,with no effect,P463A
2,with no effect,R598A
3,with no effect,V706A
4,with no effect,E607A
5,disrupting interaction strength,L562F
6,disrupting interaction strength,Q722T
7,with no effect,A544E
8,with no effect,L446K
9,with no effect,I812K
10,with no effect,I612A
11,with no effect,S561E
12,with no effect,L655K
13,with no effect,P834E
14,with no effect,F684A
15,with no effect,L481E
16,with no effect,D711A
17,with no effect,F476E
18,with no effect,F421E
19,with no effect,E887A
20,with no effect,V416A
21,with no effect,T844A

row,effect of a mutation on the interaction,Variant
1,with no effect,C469E
2,with no effect,D429A
3,with no effect,V450K
4,with no effect,V450A
5,with no effect,V415K
6,disrupting interaction strength,V506I
7,with no effect,F636E
8,with no effect,L720A
9,with no effect,A586K
10,disrupting interaction strength,Q677Y
11,with no effect,V885A
12,with no effect,Y508K
13,with no effect,G565A
14,with no effect,V442K
15,with no effect,V442E
16,with no effect,M578A
17,with no effect,T613K
18,with no effect,I534A
19,with no effect,F721K
20,with no effect,H651E
21,with no effect,T434K

row,effect of a mutation on the interaction,Variant
1,with no effect,K626A
2,with no effect,P479K
3,with no effect,D650K
4,with no effect,D650E
5,disrupting interaction strength,T697C
6,with no effect,T871A
7,with no effect,T702E
8,with no effect,Y490K
9,with no effect,L529A
10,with no effect,I451A
11,with no effect,D513K
12,with no effect,P802K
13,with no effect,E431K
14,with no effect,Y703E
15,with no effect,P877K
16,with no effect,P641E
17,with no effect,T473E
18,with no effect,S458E
19,with no effect,S558A

# Variants of: B2
# Settings: with bbs2_human BBS2, Q9BXC9
row,Variant,effect of a mutation on the interaction
1,V427E,with no effect
2,K479A,with no effect
3,E361K,with no effect
4,N640A,with no effect
5,V356E,with no effect

# Results, then the variant that gave them:
row,effect of a mutation on the interaction,Variant
1,with no effect,V413K
2,with no effect,T444A
3,with no effect,S393A

# Variants of: B2
# Settings: with bbs2_human BBS2, Q9BXC9
# Remark: another data set of the same source
row,effect of a mutation on the interaction,Variant
1,with no effect,S556R
